Source: patent US20140044730A1 (Regeneron, published 2014)
Blank lines part the entries; values can stand above or below the binder they belong to.

What was measured:
[1] = molecular target: T1, human PCSK9 with a C-terminal myc-myc-hexahistidine tag (human, UniProt Q8NBP7 31-692, limits assumed); test: cell-based or functional assay
[2] = molecular target: T1, human PCSK9 with a C-terminal …; test: cell-based or functional assay; remark: listed apart in the source
[3] = molecular target: human PCSK9 with a C-terminal myc-myc hexahistidine tag and a D374Y mutation (human, UniProt Q8NBP7 31-692, limits assumed); test: cell-based or functional assay
[4] = molecular target: recombinant cynomolgus monkey PCSK9 with a C-terminal myc-myc hexahistidine tag (cynomolgus monkey, UniProt A8T662 31-692 (Macaca nemestrina entry), limits assumed); test: cell-based or functional assay
[5] = molecular target: T1, human PCSK9 with a C-terminal …; test: SPR 25C, purified mAb captured
Protocol: (§1) A Biacore CM4 sensor chip was derivatized with a monoclonal mouse anti-human Fc antibody to capture human antibodies. The histidine substitution variant anti-PCSK9 antibodies were captured onto the anti-human Fc sensor surface from culture medium after transient expression in Chinese hamster ovary (CHO) cells. […] Kinetic association (kₐ) and dissociation (kd) rate constants were determined by processing and fitting the data to a 1:1 binding model using Scrubber 2.0 curve fitting software. Binding dissociation equilibrium constants (KD) and dissociative half-lives (t_{1/2}) were calculated from the kinetic rate constants as: KD (M)=kd/kₐ; and t_{1/2} (min)=(In2/(60*kd).
(§2) Also included in these experiments were several control/comparator antibodies. All measurements were taken at 25° C.

[6] = molecular target: T1, human PCSK9 with a C-terminal …; test: SPR 25C pH 7.4, purified mAb captured
Protocol: as §1
All measurements were taken at 25° C.

[7] = molecular target: T1, human PCSK9 with a C-terminal …; test: SPR 25C pH 6.0, purified mAb captured
Protocol: as §1, §2

[8] = molecular target: T1, human PCSK9 with a C-terminal …; test: blocking ELISA, hPCSK9-mmH vs coated hLDLR EGFA-hFc
Protocol: (§3) Briefly, hLDLR EGFA-hFc was coated at 2 μg/mL in PBS on a 96-well microtiter plate overnight at 4° C. followed by blocking with a solution of 0.5% (w/v) BSA in PBS.
(§4) The equilibrated sample solutions were then transferred to a LDLR EGFA-hFc coated plate.

[9] = molecular target: T1, human PCSK9 with a C-terminal …; test: blocking ELISA pH 7.2, 500 pM hPCSK9-mmH vs coated hLDLR EGFA-hFc
Protocol: as §3, §4

[10] = molecular target: T1, human PCSK9 with a C-terminal …; test: blocking ELISA pH 5.75, 500 pM hPCSK9-mmH vs coated hLDLR EGFA-hFc
Protocol: as §3, §4

[11] = molecular target: T1, human PCSK9 with a C-terminal …; test: blocking ELISA pH 7.2; actual obtained value, below theoretical bottom of the assay
Protocol: as §3, §4

[12] = molecular target: T1, human PCSK9 with a C-terminal …; test: blocking ELISA pH 5.75; actual obtained value, below theoretical bottom of the assay
Protocol: as §3, §4

[13] = molecular target: T1, human PCSK9 with a C-terminal …; test: SPR (Biacore), 37 °C; antibody captured on anti-human Fc surface, hPCSK9-mmH injected (3.125-50 nM); association at pH 7.4, dissociation at pH 6.0
Protocol: (§5) A Biacore CM4 sensor chip was derivatized with a Fab′2 polyclonal anti-human Fc antibody to capture human antibodies. […] Dissociation (kd) rate constants were determined by processing and fitting the data using Scrubber version 2.0 curve fitting software. Dissociative half-lives (t_{1/2}) were calculated from the dissociation rate constants as: t_{1/2} (min)=(In2/kd)/60.

[14] = molecular target: T1, human PCSK9 with a C-terminal …; test: SPR (Biacore), 37 °C; antibody captured on anti-human Fc surface, hPCSK9-mmH injected (3.125-50 nM); association at pH 7.4, dissociation at pH 7.2
Protocol: as §5

[15] = molecular target: T1, human PCSK9 with a C-terminal …; test: SPR (Biacore), 37 °C; antibody captured on anti-human Fc surface, hPCSK9-mmH injected (3.125-50 nM); association at pH 7.4, dissociation at pH 7.4
Protocol: as §5

[16] = molecular target: T1, human PCSK9 with a C-terminal …; test: SPR (Biacore), 37 °C; antibody captured on anti-human Fc surface, hPCSK9-mmH injected (3.125-50 nM); association at pH 7.4, dissociation at pH 5.75
Protocol: as §5

[17] = molecular target: T1, human PCSK9 with a C-terminal …; test: blocking ELISA pH 7.2, 500 pM hPCSK9-mmH vs coated hLDLR EGFA-hFc, exp #2
Description: The equilibrated sample solutions were then transferred to the LDLR EGFA-hFc coated plate prepared as described above.

[18] = molecular target: T1, human PCSK9 with a C-terminal …; test: blocking ELISA, hPCSK9-mmH vs coated hLDLR EGFA-hFc; non-blocking at pH 5.75
Protocol: as §3, §4

[19] = molecular target: T1, human PCSK9 with a C-terminal …; test: SPR (Biacore), 37 °C; antibody captured on anti-human Fc surface, hPCSK9-mmH injected (3.125-50 nM); association at pH 7.4, dissociation at pH 6.0; remark: listed apart in the source
Protocol: as §5

[20] = molecular target: T1, human PCSK9 with a C-terminal …; test: SPR (Biacore), 37 °C; antibody captured on anti-human Fc surface, hPCSK9-mmH injected (3.125-50 nM); association at pH 7.4, dissociation at pH 7.2; remark: listed apart in the source
Protocol: All experiments were carried out at 37° C.
as §5

[21] = molecular target: T1, human PCSK9 with a C-terminal …; test: SPR (Biacore), 37 °C; antibody captured on anti-human Fc surface, hPCSK9-mmH injected (3.125-50 nM); association at pH 7.4, dissociation at pH 7.4; remark: listed apart in the source
Protocol: as §5

[22] = molecular target: T1, human PCSK9 with a C-terminal …; test: SPR (Biacore), 37 °C; antibody captured on anti-human Fc surface, hPCSK9-mmH injected (3.125-50 nM); association at pH 7.4, dissociation at pH 5.75; remark: listed apart in the source
Protocol: as §5

- IC50, LDL uptake in HepG2 cells, 100 nM hPCSK9-mmH [1]: 31 nM
- IC50, LDL uptake in HepG2 cells, 50 nM hPCSK9-mmH [2]: 7.8 nM
- IC50, LDL uptake in HepG2 cells, 2 nM hPCSK9-D374Y-mmH [3]: 2 nM
- IC50, LDL uptake in HepG2 cells, 50 nM MfPCSK9-mmH [4]: 10.3 nM
- KD ratio pH 6.0/pH 7.4 [5]: 0.41
- ka ratio pH 6.0/pH 7.4 [5]: 1.3
- kd ratio pH 6.0/pH 7.4 [5]: 0.53
- t½ ratio pH 6.0/pH 7.4 [5]: 1.89
- Kd [6]: 0.616 nM
- koff [6]: 0.000308 s⁻¹
- kon [6]: 499000 M⁻¹ s⁻¹
- t½ [6]: 37.6 min
- Kd [7]: 0.25 nM
- koff [7]: 0.000162 s⁻¹
- kon [7]: 649000 M⁻¹ s⁻¹
- t½ [7]: 71.1 min
- IC50 ratio (pH 5.75/pH 7.2) [8]: 1.8
- IC50 [9]: < 0.125 nM
- IC50 [10]: < 0.125 nM
- IC50 [11]: 0.064 nM
- IC50 [12]: 0.113 nM
- t½ (dissociative half-life) [13]: 13 min
- t½ (dissociative half-life) [14]: 13.8 min
- t½ (dissociative half-life) [15]: 7 min
- t½ (dissociative half-life) [16]: 27.8 min
B1: 316P(v1) (antibody, IgG1, V domains shown)
VH: EVQLVESGGGLVQPGGSLRLSCAASGFTFNNYAMNWVRQAPGKGLDWVSTISGSGGTTNYADSVKGRFIISRDSSKHTLYLQMNSLRAEDTAVYYCAKDSNWGNFDLWGRGTLVTVSS
VL: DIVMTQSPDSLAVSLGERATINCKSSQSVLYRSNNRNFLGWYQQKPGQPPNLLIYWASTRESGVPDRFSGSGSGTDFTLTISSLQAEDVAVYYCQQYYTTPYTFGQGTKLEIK
notes: also called 316(v1)

- KD ratio pH 6.0/pH 7.4 [5]: 15.7
- ka ratio pH 6.0/pH 7.4 [5]: 1.79
- kd ratio pH 6.0/pH 7.4 [5]: 28.4
- t½ ratio pH 6.0/pH 7.4 [5]: 0.04
- Kd [6]: 2.68 nM
- koff [6]: 0.000278 s⁻¹
- kon [6]: 104000 M⁻¹ s⁻¹
- t½ [6]: 41.5 min
- Kd [7]: 42.1 nM
- koff [7]: 0.0079 s⁻¹
- kon [7]: 186000 M⁻¹ s⁻¹
- t½ [7]: 1.5 min
- IC50 [9]: 0.354 nM
- IC50 [17]: 0.461 nM
- IC50 ratio (pH 5.75/pH 7.2) [18]: > 500
- t½ (dissociative half-life) [19]: 0.2 min
- t½ (dissociative half-life) [20]: 8.9 min
- t½ (dissociative half-life) [21]: 8.7 min
- t½ (dissociative half-life) [22]: 0.1 min
B2: VH-D106H/VK-L30H (antibody, IgG4, V domains shown)
VH: EMQLVESGGGLVQPGGSLRLSCAASGFTFSSHWMKWVRQAPGKGLEWVANINQDGSEKYYVDSVKGRFTISRDNAKNSLFLQMNSLRAEDTAVYYCARDIVLMVYHMDYYYYGMDVWGQGTTVTVSS
VL: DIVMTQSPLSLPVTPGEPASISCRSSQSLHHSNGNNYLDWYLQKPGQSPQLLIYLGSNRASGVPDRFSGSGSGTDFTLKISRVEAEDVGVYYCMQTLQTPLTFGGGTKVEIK
notes: double His variant of 300N; also called VH-D106/VK-L30H; VH-D016H/VK-L30H
